B1: library; numbered along this chain (parent)
chain: MRKPRAAVGSGHRKQAASQEGRQKHAKNNSQAKPSACDGLARQPEEVVLQASVSSYHLFRDVAEVTAFRGSLLSWYDQEKRDLPWRRRAEDEMDLDRRAYAVWVSEVMLQQTQVATVINYYTGWMQKWPTLQDLASASLEEVNQLWAGLGYYSRGRRLQEGARKVVEELGGHMPRTAETLQQLLPGVGRYTAGAIASIAFGQATGVVDGNVARVLCRVRAIGADPSSTLVSQQLWGLAQQLVDPARPGDFNQAAMELGATVCTPQRPLCSQCPVESLCRARQRVEQEQLLASGSLSGSPDVEECAPNTGQCHLCLPPSEPWDQTLGVVNFPRKASRKPPREESSATCVLEQPGALGAQILLVQRPNSGLLAGLWEFPSVTWEPSEQLQRKALLQELQRWAGPLPATHLRHLGEVVHTFSHIKLTYQVYGLALEGQTPVTTVPPGARWLTQEEFHTAAVSTAMKKVFRVYQGQQPGTCMGSKRSQVSSPCSRKKPRMGQQVLDNFFRSHISTDAHSLNSAAQ

Variants of: B1
Experiment: 8OG:A repair function score (normalized; synonymous = 0, nonsense = -1) (normalized log-likelihood score); higher = more repair activity (WT-like)
Conditions: with 8OG:A DNA repair reporter (GFP) in HEK-293 MUTYH KO cells
Protocol: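 Saturation mutagenesis (NNN codon scan) of the MUTYH cDNA (521-aa nuclear isoform NM_001048174.1 / NP_001041639), stably expressed under doxycycline induction in HEK-293 MUTYH knockout cells. Cells were co-transfected with an 8OG:A-bearing GFP repair reporter plus mCherry and sorted 72 h later into GFP+ and GFP− bins, three replicates per tile. The Rosace log2 enrichment (GFP+ vs GFP−) was converted per tile to a normalized function score with synonymous variants centered at 0 and nonsense variants (codons 1-471) at -1; low-abundance variants were removed.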

8OG:A repair function score: each site, then its substitutions
H57: C -0.642; F -0.751; R -0.473; E -0.74; W -1.09; P -0.793; N -0.729; Q -0.657; T -0.765; M -1.63; Y -0.569; D -0.824; V -0.613; L -0.734; I -0.613; A -0.797; G -0.607; S -0.711; K -0.664
F59: D -0.583; N -0.954; Q -0.967; A -0.359; P -0.371; C -0.367; Y -0.161; I -0.137; R -0.753; L -0.095; M -0.121; T -0.579; W -0.25; E -0.768; G -0.925; V -0.24; H -0.439; S -0.561; K -1.43
V65: G -0.206; R -0.0229; P -0.196; C -0.00739; D -0.226; Y -0.0274; T -0.00404; H -0.0853; M -0.139; Q -0.0644; K 0.00609; N -0.208; E -0.196; L -0.0109; I -0.000598; F -0.0274; A -0.138; W -0.114; S -0.0751
E64: P -0.284; C -0.0897; Y -0.98; R -0.103; V -0.0293; I -0.193; F -1.97; W -0.219; K -0.115; Q 0.00334; S -0.158; T 0.00694; N -0.0585; G -0.0592; A -0.0113; D -0.0139; H -0.0871; L -0.0405
S71: R -0.0148; Q -0.0211; V 0.00531; F 0.00684; L -0.00671; H -0.0346; M 0.00635; G -0.000985; N -0.00566; C -0.00534; I -0.125; T -0.0759; P -0.0398; Y -0.0584; A -0.0236; K -0.0254; E -0.0479; W 0.000735; D -0.0972
F68: E -1.5; Q -0.906; C -0.545; M -0.0967; P -1.6; I -0.126; L -0.141; V -0.0136; N -1.12; G -1.41; D -1.87; T -0.393; S -1.34; W -0.369; R -1.29; H -1.1; Y -0.0444; K -0.962; A -0.234
Y56: F 0.0047; D -0.0985; P -0.0566; C -0.0129; E -0.0123; Q -0.0234; L 0.00637; I -0.000994; H -0.00595; K -0.0455; R -0.0483; G -0.0482; S -0.0461; M 0.00205; N -0.0497; V -0.015; T -0.011; W 0.00662; A -0.0245
T66: S -0.0428; M -0.0066; K -0.0706; D 0.00573; Y -0.00942; C 0.00591; R -0.0902; Q 0.00332; L -0.00253; A -0.0148; P -0.115; H -0.091; G -0.0192; E 0.00467; V 0.00408; N -0.0376; F -0.00932; I -0.0285
A67: K -0.0225; W -0.0846; N -0.0206; E -0.0141; Q -0.481; G -0.0739; L -0.0838; C 0.00689; F -0.0807; H -0.0348; V -0.000602; I -0.0242; D 0.00532; T 0.00198; S 0.00133; Y 0.00691; R 0.00599; M -0.118; P -0.143
R69: K -0.298; F -1.53; Y -0.421; W -3.43; A -1.46; D -1.4; C -0.33; I -3.35; P -1.42; M -3.11; G -0.281; Q -0.519; L -1.24; H -1.89; N -1.56; S -0.0909; E -3.19; V -0.212; T -0.172
D61: K 0.00675; C -0.0189; P -0.00103; N -0.0108; E -0.0493; V -0.137; G 0.00587; H -0.208; Y -0.0853; M -0.00523; F -0.794; S -0.013; W -0.127; R -0.037; L 0.00218; Q -0.0778; I -0.0219; A -0.0921; T 0.00691
V62: R -0.00306; W -0.0135; F 0.00406; P 0.00101; C -0.00556; A -0.00201; Y 0.00694; I -0.00659; K 0.00655; M -0.00891; T 0.00595; H -0.0066; N 0.00416; S 0.00493; L 0.00583; G 0.0052; E -0.456; D -0.0781; Q -0.0156
L58: Q -0.00261; M -0.0211; K -0.021; I -0.00475; R 0.00693; F 0.00426; C -0.0122; Y -0.0187; W 0.00529; H 0.00605; D -0.00786; A 0.00209; T -0.0284; S -0.0155; G 0.00575; P -0.622; N 0.00327; E 0.0056; V -0.00997
A63: K -0.00172; G -0.0575; R 0.00494; I -0.0351; T 0.00284; E -0.00911; M -0.0357; D 0.00576; V -0.0122; Q -0.105; Y -0.056; C -0.0141; P -0.0204; W -0.00488; H -0.0822; N -0.101; F -0.142; S 0.00279; L -0.00968
S55: Y 0.000496; R -0.0153; T 0.00523; Q 0.00445; P -0.274; W -0.0142; N 0.00188; M -0.0231; V 0.00566
R60: V 0.00595; D -0.0771; S 0.00106; Q -0.692; N 0.00565; W -0.564; H -0.196; T 0.00688; I -0.0738; A -0.0135; M 0.00468; F -0.0889; L 0.00645; C -0.081; P -0.0757; E -0.127; Y -0.014; K -0.0179; G -0.0378
L72: K -1.1; M -0.732; P -1.34; Y -1.03; S -0.775; C -0.229; D -1.11; W -0.994; E -1.21; G -1.17; H -1.08; Q -1.44; N -2.41; I -0.0959; T -0.206; V -0.446; F -1.08; A -0.207; R -1.65
G70: M -0.00743; C 0.00567; D -0.369; A -0.0222; L -0.0189; I -0.00774; R 0.00416; T -0.693; V 0.0055; P -0.126; E -0.0876; F -0.115; Q -0.528; S -0.0056
L73: K -0.453; E -0.46; G -0.786; I -0.0679; F -0.261; A -0.307; C -0.0699; D -1.01; H -0.344

— the supplement of paper PMC11908140
